Data from patent US20240343811A1 (SHANDONG SIMCERE BIOPHARMACUTICAL, published 2024).
Where a chain is given by its changes, count along the chain named. One block for each binder: values may come before it.

Key:
Human CD16b (NA2)-his = target: T1, Human CD16b (NA2)-his (human); assay: SPR (Biacore), antibody captured on Protein A
T1 construct: entry holds ECD, linker, His tag and AVI tag
T1 chain: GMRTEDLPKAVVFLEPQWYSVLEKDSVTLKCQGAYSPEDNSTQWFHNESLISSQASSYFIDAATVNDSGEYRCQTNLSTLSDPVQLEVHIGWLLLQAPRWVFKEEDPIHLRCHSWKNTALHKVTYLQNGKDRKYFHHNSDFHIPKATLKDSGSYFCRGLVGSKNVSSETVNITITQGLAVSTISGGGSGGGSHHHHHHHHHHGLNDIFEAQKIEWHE
In short: (§1)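 Protein A–captured antibody was probed with CD16-his ECD in HBS-EP+ at 25 °C: five 2-fold dilutions from 200 nM, 240 s at 30 μL/min, dissociation up to 600 s. Glycine pH 1.5 regenerated the chip. Apparent KD came from a double-referenced 1:1 Langmuir fit.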

[1] = target: T2, Cynomolgus monkey CD16-his (cynomolgus monkey); assay: SPR (Biacore), antibody captured on Protein A
T2 construct: entry holds ECD, AVI tag, linker and His tag; also called cyno CD16-ECD his; Cyno CD16
T2 chain: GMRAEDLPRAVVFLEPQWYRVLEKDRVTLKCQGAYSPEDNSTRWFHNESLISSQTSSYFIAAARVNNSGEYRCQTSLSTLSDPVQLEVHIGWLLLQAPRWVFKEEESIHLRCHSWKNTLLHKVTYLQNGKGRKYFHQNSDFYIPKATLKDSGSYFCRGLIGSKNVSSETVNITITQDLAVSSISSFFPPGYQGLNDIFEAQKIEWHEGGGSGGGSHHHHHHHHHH
In short: as §1

[2] = target: T3, cynomolgus monkey CD16, full length, on FlpinCHO cells (cynomolgus monkey, UniProt Q8SPW2 17-254); assay: FACS on FlpinCHO cells
T3 construct: also called FlpinCHO-cyno CD16; Flipin CHO-cyno CD16
In short: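 FlpinCHO cells expressing full-length cynomolgus CD16, blocked in PBS/2% BSA at 2×10⁶ cells/ml, incubated with antibody at various concentrations 1 h on ice. Flow cytometry MFI fitted to give EC50.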

[3] = target: T4, human CD16b (NA2), full length, on FlpinCHO cells (human, UniProt O75015 17-200); assay: FACS on FlpinCHO cells
T4 construct: also called FlpinCHO-human CD16b (NA2)
T4 chain: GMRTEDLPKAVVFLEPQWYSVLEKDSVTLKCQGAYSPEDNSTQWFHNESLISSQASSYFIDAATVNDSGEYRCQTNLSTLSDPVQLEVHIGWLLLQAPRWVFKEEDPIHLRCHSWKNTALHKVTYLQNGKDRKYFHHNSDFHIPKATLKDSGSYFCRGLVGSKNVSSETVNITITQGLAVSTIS
In short: (§2)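 Trypsin-detached FlpinCHO cells expressing full-length CD16b were blocked in PBS+2% BSA and incubated on ice for 1 hour with antibody at varying concentrations. Binding read by flow cytometry as MFI; EC50 from curve fitting.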

[4] = target: T5, human CD16b (NA1), full length, on FlpinCHO cells (human, UniProt O75015 17-200); assay: FACS on FlpinCHO cells
T5 construct: also called FlpinCHO-human CD16b (NA1)
T5 chain: T4 chain with S20R, S49N, N66D, I90V
In short: as §2

T3 sequence (Q8SPW2 other isoform, or with tags, fused parts or gaps limits assumed): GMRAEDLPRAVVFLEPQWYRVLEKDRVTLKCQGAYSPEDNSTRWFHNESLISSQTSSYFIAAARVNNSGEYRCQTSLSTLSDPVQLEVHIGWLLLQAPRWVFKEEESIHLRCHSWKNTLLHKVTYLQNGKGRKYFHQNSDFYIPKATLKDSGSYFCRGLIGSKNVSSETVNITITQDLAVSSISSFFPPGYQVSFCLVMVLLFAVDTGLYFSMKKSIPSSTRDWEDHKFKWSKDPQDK

Kd (Human CD16b (NA2)-his): 4920 nM
koff (Human CD16b (NA2)-his): 0.2 s⁻¹
kon (Human CD16b (NA2)-his): 40700 M⁻¹ s⁻¹
Kd [1]: 23.6 nM
koff [1]: 0.015 s⁻¹
kon [1]: 633000 M⁻¹ s⁻¹
B1: VHH11 VHH-Fc antibody (Fc fusion)
chain: EVQVVESGGGLAQAGGSLRLSCAVSGITFSSYAMGWYRQDPGKQRELVAAINRFGLTNYADSVKGRFTISRDNAKNTVYLQMTSLKPEDTAVYYCNTGGVYSHPNYYTGTYWGQGTQVTVSSEPKSSDKTHTCPPCPAPEFEGGPSVFLFPPKPKDTLMISRTPEVTCVVVAVSHEDPEVKFNWYVDGVEVHNAKTKPREEQYNSTYRVVSVLTVLHQDWLNGKEYKCKVSNKALPAPIEKTISKAKGQPREPQVYTLPPSREEMTKNQVSLTCLVKGFYPSDIAVEWESNGQPENNYKTTPPVLDSDGSFFLYSKLTVDKSRWQQGNVFSCSVMHEALHNHYTQKSLSLSPGK

Kd (Human CD16b (NA2)-his): 1050 nM
koff (Human CD16b (NA2)-his): 0.0998 s⁻¹
kon (Human CD16b (NA2)-his): 95100 M⁻¹ s⁻¹
Kd [1]: 8.51 nM
koff [1]: 0.0101 s⁻¹
kon [1]: 1.18e+06 M⁻¹ s⁻¹
EC50 [2]: 0.35 nM
Maximum mean fluorescence intensity [2]: 18400
Maximum mean fluorescence intensity [3]: 87900
EC50 [4]: 0.7 nM
Maximum mean fluorescence intensity [4]: 60500
B2: VHH12 VHH-Fc antibody (Fc fusion)
chain: B1 chain with E1Q, V4L, A12V, V24A, D40A, S62F, D72V, N105D

Maximum mean fluorescence intensity [3]: 468
EC50 [4]: 0.74 nM
Maximum mean fluorescence intensity [4]: 54100
B3: VHH06 VHH-Fc antibody (Fc fusion)
chain: EVQLVESGGGLVQAGGSLRLSCVASGSTWTTYAVRWYRQAPGKQREWVAFISVDGSTNYPDSVKGRFIVSRDNAKNTVYLQMNSLKPEDTADYICRVGGQYWGQGTQVTVSSEPKSSDKTHTCPPCPAPEFEGGPSVFLFPPKPKDTLMISRTPEVTCVVVAVSHEDPEVKFNWYVDGVEVHNAKTKPREEQYNSTYRVVSVLTVLHQDWLNGKEYKCKVSNKALPAPIEKTISKAKGQPREPQVYTLPPSREEMTKNQVSLTCLVKGFYPSDIAVEWESNGQPENNYKTTPPVLDSDGSFFLYSKLTVDKSRWQQGNVFSCSVMHEALHNHYTQKSLSLSPGK
